Test results taken from patent US7250488 (Kyowa Kirin, dated 2007).
Substitutions are numbered along the chain they refer to. Values belong to the binder of their own block, whether it stands above or below them.

Legend:
[1] = target: T1, GAL4-β-catenin fusion protein (GAL4 BD fused with mβ-catenin arm, residues 141 to 664) (yeast; mouse, UniProt P04386 1-147; Q02248 141-664); experiment: yeast two-hybrid, β-galactosidase activity
T1 construct: Two-hybrid bait expressed in yeast HF7C; also called bait for mβ-catenin arm
Text: Specifically, both mouse fetal cDNA library for the two-hybrid system and plasmid GAL4-β-catenin prepared in (1) were introduced in yeast *Saccharomyces cerevisiae* HF7C strain (Clontech). HF7C strain is a yeast strain that is tryptophan-, leucine-, and histidine-auxotrophic, and, on the chromosome, has as a reporter gene a gene involved in histidine biosynthesis, HIS3, which has been ligated downstream of GAL1 promoter to which GAL4 BD can bind, as well as has of *E. coli*-derived β-galactosidase gene lazZ ligated downstream of a nucleotide sequence where GAL4 BD can bind (Gene, 212, 197 (1998)). A transformant containing both plasmid GAL4-β-catenin and cDNA clone for protein capable of binding to mβ-catenin arm and expresses the respective fusion proteins, is non-auxotrophic for histidine and is positive in β-galactosidase activity, because GAL4 BD is placed adjacent to GAL4 AD due the binding between mβ-catenin arm and the binding protein, the transcriptions of HIS3 gene and lacZ gene, downstream of the nucleotide sequence to which GAL4 BD binds, are activated. Four clones were finally selected, as colonies positive in β-galactosidase activity from 2.3 ×10^7 transformants which were grown on a medium without any of leucine, histidine, and tryptophan.
Each of these expression plasmids for fusion proteins of GAL4 AD and ICAT mutants was introduced together with the bait plasmid GAL4-β-catenin for mβ-catenin arm into yeast HF7C strain in the same manner as in Example 1, and then the binding of each ICAT mutant with β-catenin was evaluated based on the presence of β-galactosidase activity in the transformants.

mouse β-catenin [2] = target: T2, mouse β-catenin (mouse, UniProt Q02248 2-781); experiment: immunoprecipitation with anti-ICAT antibody from mouse brain lysate, Western blotting with anti-β-catenin antibody
T2 construct: mature; also called ^35S-labeled β-catenin
T2 sequence (looked up): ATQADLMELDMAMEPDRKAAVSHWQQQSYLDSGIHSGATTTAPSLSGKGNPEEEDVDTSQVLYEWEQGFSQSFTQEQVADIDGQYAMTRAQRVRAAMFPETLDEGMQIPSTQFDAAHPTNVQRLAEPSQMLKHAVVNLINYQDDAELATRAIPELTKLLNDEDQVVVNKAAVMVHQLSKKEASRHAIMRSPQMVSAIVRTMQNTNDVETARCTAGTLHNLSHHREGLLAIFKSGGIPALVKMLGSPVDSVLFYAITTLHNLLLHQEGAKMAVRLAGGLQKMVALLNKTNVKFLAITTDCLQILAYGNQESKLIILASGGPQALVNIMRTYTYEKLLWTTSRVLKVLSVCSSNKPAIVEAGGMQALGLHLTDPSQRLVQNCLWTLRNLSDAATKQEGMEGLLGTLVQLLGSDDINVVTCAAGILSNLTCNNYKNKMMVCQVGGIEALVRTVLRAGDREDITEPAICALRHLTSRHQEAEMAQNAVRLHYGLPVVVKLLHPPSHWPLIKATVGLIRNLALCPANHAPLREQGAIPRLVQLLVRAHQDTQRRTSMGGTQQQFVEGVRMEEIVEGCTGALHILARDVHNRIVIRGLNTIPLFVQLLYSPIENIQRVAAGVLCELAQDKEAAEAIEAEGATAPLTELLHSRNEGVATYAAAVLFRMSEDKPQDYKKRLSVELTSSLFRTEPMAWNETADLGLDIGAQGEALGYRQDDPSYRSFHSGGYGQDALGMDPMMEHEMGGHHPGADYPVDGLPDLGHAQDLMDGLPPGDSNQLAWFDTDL
Experimental: In the experiment for the detection of ICAT with immunoprecipitation and Western blotting using mouse brain lysate in Example 6, immunoprecipitation was carried out with the anti-ICAT antibody, and then Western blotting was performed with the anti-β-catenin monoclonal antibody (Transduction Laboratory; animal used for the immunization is mouse) as a primary antibody for the detection. […] However, when, in this experiment, the anti-ICAT antibody, which had previously been reacted to GST/ICAT, was used in the immunoprecipitation, the band of β-catenin was not detected because of inhibition of immunoprecipitation.

[3] = target: T3, N-terminal portion of mouse β-catenin (residues 1 to 140), ^35S-labeled (mouse, UniProt Q02248 1-140); experiment: GST/ICAT pull-down of ^35S-labeled in vitro translated protein, autoradiography
T3 construct: range 1-140; Translated in vitro with ^35S-methionine
T3 sequence (looked up): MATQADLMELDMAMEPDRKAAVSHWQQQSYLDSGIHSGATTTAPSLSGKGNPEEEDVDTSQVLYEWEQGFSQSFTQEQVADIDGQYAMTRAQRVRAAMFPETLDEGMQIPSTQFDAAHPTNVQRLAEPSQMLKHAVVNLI
Experimental: (§1) The GST/ICAT-expressing E. coli as well as control GST-expressing E. coli prepared in Example 3 were cultured to obtain the respective bacterial lysates. Glutathione-Sepharose 4B (Amersham-Pharmacia Biotech) was added to these bacterial lysates, and […] or GST was adsorbed on it to isolate it. The GST/ICAT- or GST-adsorbed glutathione-Sepharose 4B was reacted to the above-mentioned ^35S-labeled β-catenin in buffer A containing 0.1% Triton X-100 at 4° C. for 2 hours. After the glutathione-Sepharose 4B was washed well with buffer A and then SDS-PAGE sample buffer was added thereto to elute the bound protein to the sample buffer. The eluate was used as a sample in SDS-PAGE in which the gel concentration was 15% and then the gel was visualized by autoradiography. […] Accordingly, it has been verified that GST/ICAT directly binds to β-catenin in vitro and that the site responsible for the binding to β-catenin is located within the ICAT moiety of GST/ICAT.
(§2) The region of β-catenin responsible for the binding with ICAT was determined as follows. DNA fragments encoding the region of armadillo domain of mouse β-catenin (residues 141 to 664 in the amino acid sequence), N-terminal portion (residues 1 to 140 in the amino acid sequence), and C-terminal portion (residues 665 to 782 in the amino acid sequence) were amplified by PCR. […]

[4] = target: T4, C-terminal portion of mouse β-catenin (residues 665 to 782), ^35S-labeled (mouse, UniProt Q02248 665-781); experiment: as above
T4 construct: range 665-782; Translated in vitro with ^35S-methionine
T4 sequence (looked up): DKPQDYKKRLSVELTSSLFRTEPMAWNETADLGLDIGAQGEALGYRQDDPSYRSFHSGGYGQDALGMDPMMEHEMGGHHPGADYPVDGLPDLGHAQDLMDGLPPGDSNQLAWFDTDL
Experimental: as §1, §2

mouse β-catenin [5] = target: T2, mouse β-catenin; experiment: GST fusion pull-down in vitro, as in Example 8
Experimental: as §1, with “Analysis of Binding Between ICAT and β-catenin (1) Detection of the Direct Binding In Vitro The direct binding of ICAT to β-catenin was verified as follows. ^35S-labeled β-catenin was translated and synthesized from mouse β-catenin mRNA in vitro by using ^35S-labeled methionine TNT-reticulocyte lysate system (Promega). The GST/ICAT-expressing” for “The GST/ICAT-expressing”, “of GST/ICAT. […]” for “of GST/ICAT.”

binding result [1]: no binding
B1: ICAT(21-81), GAL4 AD fusion (other, not shown: large carriers)
chain: RVLLMLRKMGSNLTASEEEFLRTYAGVVSSQLSQLPQHSIDQGAEDVVMAFSRSETEDRRQ
notes: Mouse ICAT deletion mutant used as a two-hybrid prey; also called (d) ICAT(21-81)

binding result [1]: no binding
B2: ICAT (42-81), GAL4 AD fusion (other, not shown: large carriers)
chain: RTYAGVVSSQLSQLPQHSIDQGAEDVVMAFSRSETEDRRQ
notes: Mouse ICAT deletion mutant used as a two-hybrid prey; also called (e) ICAT(42-81)

binding result (mouse β-catenin [2]): binds
B3: mouse ICAT (inhibitor of β-catenin and TCF) (other)
chain: MNREGAPGKSPEEMYIQQKVRVLLMLRKMGSNLTASEEEFLRTYAGVVSSQLSQLPQHSIDQGAEDVVMAFSRSETEDRRQ
notes: Untagged full-length mouse ICAT (81 amino acids); It was tested expressed from pMKITneo in COS-7 and other animal cells, translated in vitro in reticulocyte lysate, and as the endogenous protein of mouse brain; also called 9-kDa protein

binding result [3]: no binding
binding result [4]: no binding
B4: GST/ICAT (fusion protein between GST and ICAT) (other)
chain: B3 chain
notes: Mouse ICAT cDNA was subcloned between EcoRI/SalI of pGEX5X-1, so ICAT sits on the C-terminal side of GST; Expressed in E. coli; not shown: glutathione S-transferase (GST) as encoded by vector pGEX5X-1

binding result [1]: no binding
B5: ICAT(E37-39A), GAL4 AD fusion (other, not shown: large carriers)
chain: B3 chain with E37A, E38A, E39A
notes: The glutamic acid residues 37, 38 and 39 are converted to alanine; Used as a two-hybrid prey; also called (j) ICAT(E37-39A)

binding result (mouse β-catenin [5]): no binding
B6: ICAT(E37-39A) expressed as a GST fusion protein (other)
chain: B3 chain with E37A, E38A, E39A
notes: Expressed in E. coli; not shown: glutathione S-transferase (GST); made in the same manner as GST/ICAT

binding result [1]: no binding
B7: ICAT(1-41), GAL4 AD fusion (other, not shown: large carriers)
chain: MNREGAPGKSPEEMYIQQKVRVLLMLRKMGSNLTASEEEFL
notes: Mouse ICAT deletion mutant used as a two-hybrid prey; also called (b) ICAT(1-41)

binding result [1]: no binding
B8: ICAT (21-61), GAL4 AD fusion (other, not shown: large carriers)
chain: RVLLMLRKMGSNLTASEEEFLRTYAGVVSSQLSQLPQHSID
notes: Mouse ICAT deletion mutant used as a two-hybrid prey; also called (g) ICAT(21-61)
